The target of assay [1] is T1, gD epitope-tagged rat mesothelin expressed on cells (rat, UniProt Q9ERA7 298-582).
T1 sequence: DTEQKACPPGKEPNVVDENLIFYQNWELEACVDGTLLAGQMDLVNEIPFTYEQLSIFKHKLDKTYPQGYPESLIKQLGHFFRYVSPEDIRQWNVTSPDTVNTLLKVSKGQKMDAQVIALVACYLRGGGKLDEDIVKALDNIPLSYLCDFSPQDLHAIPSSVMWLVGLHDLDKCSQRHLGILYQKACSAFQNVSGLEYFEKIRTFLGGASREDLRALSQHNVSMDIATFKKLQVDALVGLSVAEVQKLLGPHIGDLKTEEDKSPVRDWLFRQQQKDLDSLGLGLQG
Description: Scatchard analysis on BJAB cells stably expressing gD-tagged rat mesothelin.

The target of assay [2] is T2, gD epitope-tagged cynomolgus monkey mesothelin expressed on cells (construct #383) (cynomolgus monkey).
T2 construct: also called cyno mesothelin
T2 chain: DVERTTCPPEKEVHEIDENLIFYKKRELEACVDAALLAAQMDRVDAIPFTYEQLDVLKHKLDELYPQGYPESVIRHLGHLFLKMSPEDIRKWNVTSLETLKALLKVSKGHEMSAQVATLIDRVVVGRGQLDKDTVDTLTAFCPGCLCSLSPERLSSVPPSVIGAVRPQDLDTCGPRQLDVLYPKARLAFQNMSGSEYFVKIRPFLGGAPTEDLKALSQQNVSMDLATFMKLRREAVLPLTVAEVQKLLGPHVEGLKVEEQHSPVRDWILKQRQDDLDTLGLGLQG
Nature of the assay: Scatchard analysis on BJAB cells stably expressing gD-tagged cyno mesothelin.

In assay [3] the target is T3, gD epitope-tagged mouse mesothelin expressed on cells (construct #385) (mouse, UniProt Q61468 298-582).
T3 sequence: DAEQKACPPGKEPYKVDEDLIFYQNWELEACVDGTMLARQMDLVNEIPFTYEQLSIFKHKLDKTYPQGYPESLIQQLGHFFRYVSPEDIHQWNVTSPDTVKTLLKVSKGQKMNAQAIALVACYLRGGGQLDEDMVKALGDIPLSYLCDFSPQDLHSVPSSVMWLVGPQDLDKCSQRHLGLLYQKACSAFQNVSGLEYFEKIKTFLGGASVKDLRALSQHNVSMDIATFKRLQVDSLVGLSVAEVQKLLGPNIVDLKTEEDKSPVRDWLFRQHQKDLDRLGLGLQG
Nature of the assay: FACS on stably transfected 293 cells. The procedure: Monoclonal antibodies were tested to determine if they cross-react with mesothelin from species other than human. […] Shaded residues are identical between at least two species. Unshaded residues differ between at least two of the four species. […] Anti-gD staining verified that mouse mesothelin was indeed expressed.

The target in assay [4] is T4, human mesothelin on cells (endogenous on tumour cell lines and tissue, or stably expressed on A431 or HT1080 … (human, UniProt Q13421 296-580)).
T4 construct: also called endogenous mesothelin; endogenous human mesothelin
T4 sequence (Q13421 other isoform, or with tags, fused parts or gaps): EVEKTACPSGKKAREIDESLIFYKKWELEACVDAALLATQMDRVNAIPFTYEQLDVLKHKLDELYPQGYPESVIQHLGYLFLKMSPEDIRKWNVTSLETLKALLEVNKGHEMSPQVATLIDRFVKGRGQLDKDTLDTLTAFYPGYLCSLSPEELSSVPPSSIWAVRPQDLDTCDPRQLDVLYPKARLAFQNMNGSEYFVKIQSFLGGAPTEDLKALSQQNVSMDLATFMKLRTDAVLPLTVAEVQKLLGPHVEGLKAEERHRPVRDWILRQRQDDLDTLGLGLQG
Description: Scatchard; endogenous human mesothelin on cell lines. The protocol: (§1) The data was analyzed with non-linear regression curve fitting in the New Ligand program (Genentech, Inc., South San Francisco, Calif.) to estimate Kd values (Munson et al., Anal. Biochem., 107 220-239 (1980)).

In assay [5] the target is T5, endogenous rat mesothelin on the normal pleural cell line 4/4-RM4 (rat, UniProt Q9ERA7 298-582).
T5 sequence: T1 sequence
Description: Scatchard on the normal rat pleural cell line 4/4-RM4. The protocol: as §1

Assay [6] addresses T6, gD epitope-tagged human mesothelin expressed on cells (construct #387) (human, UniProt Q13421 296-580).
T6 construct: also called gD-human mesothelin; gD-tagged human mesothelin
Nature of the assay: Scatchard, 125I-labelled antibody on stably transfected 293 cells. The procedure: as §1

For assay [7], the target named is T1, gD epitope-tagged rat mesothelin …. Described as above. The protocol:
as §1

Assay [8] deals with T6, gD epitope-tagged human mesothelin …. Nature of the assay: Scatchard, 125I-labelled antibody on stably transfected BJAB cells. The protocol: as §1
Assay [9] has as its target T1, gD epitope-tagged rat mesothelin …. The description is as above. The procedure:
as §1

For assay [10], the target named is T6, gD epitope-tagged human mesothelin …. Nature of the assay: Scatchard, 125I-labelled antibody on stably transfected HT1080 cells. The protocol: as §1
Assay [11] concerns the target T4, human mesothelin on cells (endogenous …). Nature of the assay: Scatchard analysis (125I-labelled antibody) on HPAC cells, endogenous mesothelin. The protocol:
as §1

For assay [12] the target is unchanged. Description: Scatchard analysis (125I-labelled antibody) on AsPC1 cells, endogenous mesothelin. The procedure:
as §1

For assay [13] the target is unchanged. Description: Scatchard analysis (125I-labelled antibody) on Capan2 cells, endogenous mesothelin. The procedure: as §1
For assay [14] the target is unchanged. Description: Scatchard analysis (125I-labelled antibody) on OvCar3 cells, endogenous mesothelin. The procedure: as §1
Assay [15] shares this target. Nature of the assay: Scatchard analysis (125I-labelled antibody) on HPAF-II cells, endogenous mesothelin. The procedure: as §1
Assay [16] addresses T2, gD epitope-tagged cynomolgus monkey …. Description: Scatchard analysis (125I-labelled antibody), row 'Cyno 293', stably transfected cells. The procedure:
as §1

Assay [17] has as its target T4, human mesothelin on cells (endogenous …). Nature of the assay: Scatchard analysis (125I-labelled antibody) on OvCar3x2.1 cells, endogenous mesothelin. The protocol: as §1
The target in assay [18] is T2, gD epitope-tagged cynomolgus monkey …. Description: Scatchard analysis (125I-labelled antibody), row 'Cyno BJAB', stably transfected cells. The protocol:
as §1

For assay [19] the target is unchanged. Description: Scatchard analysis (125I-labelled antibody), row 'Cyno HT1080', stably transfected cells. The protocol: as §1
For assay [20], the target named is T7, E. coli derived recombinant human mesothelin (human, UniProt Q13421 296-580).
T7 construct: not shown: N-terminal unizyme His (HQ)-tag
T7 sequence (Q13421 other isoform, or with tags, fused parts or gaps): as above
Description: Biacore-2000, IgG over immobilised E. coli derived human mesothelin, 1:1 fit. The procedure: (§2) 7D9 variants were expressed as IgG by CHO transient transfection. IgG was purified with protein G affinity chromatography. The affinity of each 7D9 IgG variant for human mesothelin was determined by surface plasmon resonance using a BIACORE™-2000. BIACORE™ research grade CM5 chips were immobilized with approximately 110 RU of E. coli derived recombinant human mesothelin using the amine coupling kit from BIACORE™. […] Each sample was analyzed with 5-minute association and 3.5-minute dissociation. After each injection the chip was regenerated using 10 mM Glycine pH 1.7. Binding response was corrected by subtracting the RU from a flow cell with an irrelevant IgG immobilized at similar density. A 1:1 Languir model of simultaneous fitting of kₒₙ and koff was used for kinetics analysis.

Assay [21] deals with T7, E. coli derived recombinant human …. Nature of the assay: SPR (Biacore), IgG over immobilized E. coli derived human mesothelin. The procedure:
as §2
The human acceptor framework used for humanization of 7D9 is based on the human VL kappa I consensus (VLKI) and the acceptor VH framework VHATA, which differs from the human VH subgroup III consensus (VHIII) at 3 positions: R71A, N73T, and L78A (Carter et al., Proc. Natl. Acad. Sci. USA 89:4285 (1992)). The VL and VH domains of murine 7D9 were aligned with the human VLKI and VHIII domains; hypervariable regions were identified and grafted into the human acceptor framework to generate 7D9.v1 (FIGS. 4 and 5).
On the technique in general: In SPR one partner is held on a chip, and binding of the other changes the refractive index at the surface.

Changes are numbered by the printed parent chain.

T6 sequence (Q13421 other isoform, or with tags, fused parts or gaps): as above

B1: 22A10 graft (antibody, V domains shown)
VH: EVQLVESGGGLVQPGGSLRLSCAASGFTFSDYFMSWVRQAPGKGLEWVATISNGGTYTYYPDSVKGRFTISRDNSKNTLYLQMNSLRAEDTAVYYCARFDGYYFDYWGQGTLVTVSS
VL: DIQMTQSPSSLSASVGDRVTITCRASQDISNYLNWYQQKPGKAPKLLIYYTSRLHSGVPSRFSGSGSGTDFTLTISSLQPEDFATYYCQQGNTLPYTFGQGTKVEIK
notes: also called hu22A10graft; 22A10 CDR graft
As for B1, the Kd in assay [1] stood at 1.9 nM; in assay [2], 1 nM.

B2: humanized monoclonal antibody 22A10.v83 (antibody, V domains shown)
VH: B1 VH with Y103I
VL: DIQMTQSPSSLSASVGDRVTITCRASQDISNYLNWYQQKPGKAPKLLIYYTSRLHSGVPSRFSGSGSGTDFTLTISSLQPEDFATYYCQQGNTLPYTFGQGTKVEIKR
notes: also called h22A10.v83; hu22A10.v83
Take B2: in assay [3], the binding result is reported as “no binding (tested: 10 µg/ml)”. Moreover, the Kd in assay [4] was 9 to 10 nM; in [5], 6.2 nM; in assay [6], 2.7 nM; in assay [7], 7.3 nM; in assay [8], 1.8 nM; in assay [9] it was 2.7 nM. Also, the Kd was 6.2 nM in [10]; 1.3 nM in assay [2]; 9.4 nM in assay [11]; 9.3 nM in assay [12]; 4.2 nM in [13]; 9.2 nM in assay [14]. In addition, the Kd in [15] turned out to be 10.4 nM; in assay [16], 4.3 nM; in [17], 9 nM; in assay [18] it was 1.3 nM; in assay [19], 6.4 nM.

B3: 7D9.v5 (antibody, V domains shown)
VH: EVQLVESGGGLVQPGGSLRLSCAASGYTFTTYWMHWVRQAPGKGLEWVGYIRPSTGYTEYNQKFKDRFTISADTSKNTAYLQMNSLRAEDTAVYYCARSRWLLDYWGQGTLVTVS
VL: DIQMTQSPSSLSASVGDRVTITCKSSQSVLYSSNQKNYLAWFQQKPGKAPKLLIYWASTRESGVPSRFSGSGSGTDFTLTISSLQPEDFATYYCHQYLSSYTFGQGTKVEIK
In the case of B3, in assay [20], the equilibrium dissociation constant (Kd) turned out to be 3.49 nM.

B4: 7D9.v1 (antibody, V domains shown)
VH: B3 VH
VL: B3 VL with F42Y
notes: also called direct-graft 7D9.v1
B4: in assay [21], the “fold decrease in affinity relative to mu7D9 (chimeric 7D9)” value was roughly 2 fold. In assay [20], the dissociation constant Kd was found to be 3.98 nM.

B5: 7D9.v6 (antibody, V domains shown)
VH: B3 VH
VL: B3 VL with F42Y, Y93F
For B5, the Kd in assay [20] came to 4.08 nM.

B6: chimeric 7D9 (antibody, V domains shown)
VH: QVQLQQSGAELAKPGASVKMSCKASGYTFTTYWMHWVKQRPGQGLEWIGYIRPSTGYTEYNQKFKDKATLTADKSSSTAYMQLSSLTSEDSTVYYCARSRWLLDYWGQGTSLTVS
VL: DIMMTQSPSSLAVSAGEKVTMSCKSSQSVLYSSNQKNYLAWFQQKPGQSPKLLIYWASTRESGVPDRFTGSGSGTDFTLTISSVQAEDLAVYFCHQYLSSYTFGGGTKVEIK
notes: also called ch7D9; mu7D9 (formatted as a chimeric 7D9)
In the case of B6, the dissociation constant (Kd) in assay [20] was 1.84 nM.

The Kd is the equilibrium constant for the complex coming apart.
